Assay [1] addresses T1, Human nectin-4 ECD-6His (TNT-175) (human, UniProt Q96NY8 32-349).
T1 construct: the entry holds the extracellular domain with the C-terminal 6His tag
T1 sequence: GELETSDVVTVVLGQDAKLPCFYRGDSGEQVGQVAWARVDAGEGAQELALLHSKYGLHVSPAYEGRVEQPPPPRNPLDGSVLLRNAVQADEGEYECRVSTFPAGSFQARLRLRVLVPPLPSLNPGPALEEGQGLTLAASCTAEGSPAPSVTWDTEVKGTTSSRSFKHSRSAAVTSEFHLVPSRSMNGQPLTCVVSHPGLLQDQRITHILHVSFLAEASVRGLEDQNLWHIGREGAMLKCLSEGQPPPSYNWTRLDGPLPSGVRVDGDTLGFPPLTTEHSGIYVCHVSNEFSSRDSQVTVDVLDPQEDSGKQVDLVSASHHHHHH
As to the kind of experiment: SPR Biacore 8K, mAb on protein A. As to the method: (§1) The running buffer was 10 mM HEPES, pH 7.4, 150 mM NaCl, 3 mM EDTA, 0.05% (v/v) Surfactant P20 (HBS-EP+). […] The nectin-4 analytes were injected in either single-cycle kinetics or multi-cycle kinetics mode at nominal starting concentrations of 300 nM or 900 nM with 3-fold serial dilutions. Association times were monitored for 120 s, and dissociation times were monitored 1800 s at 30 μL/min flow rate. The surfaces were regenerated with 10 mM glycine at pH1.7 or 75 mM phosphoric acid at pH1.6 for two pulses of 15 s at 30 μL/min flow rate.
(§2) The data were processed and analyzed with Biacore 8K Evaluation Software Version 3.0.12.15655 (Cytiva, Global Life Sciences Solutions USA LLC, Marlborough, MA). […] The responses from the nearest buffer blank injection were then subtracted from the reference subtracted data (2-1) to yield double-referenced data. These double-reference data were fit to a simple 1:1 Langmuir binding model with mass transport to determine the apparent association (ka) and dissociation rate constants (kd). The apparent equilibrium dissociation constant or affinity constant was then calculated based on their ratio as (KD=kd/ka).
A general note: Surface plasmon resonance follows binding to a sensor surface in real time, without labels.

The target of assay [2] is T2, Mouse nectin-4 ECD-6His (TNT-250) (mouse, UniProt Q8R007 31-347).
T2 construct: entry includes the 6His tag; also called mouse nectin-4-LCD
T2 sequence: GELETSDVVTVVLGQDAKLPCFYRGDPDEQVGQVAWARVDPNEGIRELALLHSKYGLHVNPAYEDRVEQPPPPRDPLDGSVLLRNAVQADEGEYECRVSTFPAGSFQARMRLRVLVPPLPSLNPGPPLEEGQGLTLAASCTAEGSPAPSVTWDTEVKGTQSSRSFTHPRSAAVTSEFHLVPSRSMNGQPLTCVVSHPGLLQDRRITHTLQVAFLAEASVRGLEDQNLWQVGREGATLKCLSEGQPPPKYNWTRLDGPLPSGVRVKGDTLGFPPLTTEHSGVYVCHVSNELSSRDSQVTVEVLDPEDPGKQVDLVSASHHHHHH
As to the kind of experiment: SPR Biacore 8K, mAb on protein A. As for the experimental part:
as §1, §2

In assay [3] the target is T3, Human nectin-4-IgV-6His (TNT-252) (human, UniProt Q96NY8 32-147).
T3 construct: entry includes the 6His tag
T3 sequence: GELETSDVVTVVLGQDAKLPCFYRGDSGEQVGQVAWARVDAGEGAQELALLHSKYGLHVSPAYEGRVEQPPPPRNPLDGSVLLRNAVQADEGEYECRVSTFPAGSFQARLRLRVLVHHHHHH
As to the kind of experiment: SPR Biacore 8K, mAb on protein A. As to the method:
as §1, §2

The target in assay [4] is T4, Cyno nectin-4 ECD-6His (TNT-255) (cynomolgus, UniProt Q96NY8 32-349 (human entry)).
T4 construct: entry includes the 6His tag
T4 chain: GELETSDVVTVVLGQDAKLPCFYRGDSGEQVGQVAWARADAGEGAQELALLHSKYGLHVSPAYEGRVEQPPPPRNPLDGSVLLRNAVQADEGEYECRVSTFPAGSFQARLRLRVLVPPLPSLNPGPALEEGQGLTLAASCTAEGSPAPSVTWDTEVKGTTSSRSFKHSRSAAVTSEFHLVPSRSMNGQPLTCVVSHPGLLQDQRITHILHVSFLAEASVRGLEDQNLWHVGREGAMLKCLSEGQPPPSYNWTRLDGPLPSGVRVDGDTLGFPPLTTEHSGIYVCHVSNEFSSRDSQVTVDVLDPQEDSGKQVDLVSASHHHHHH
Put plainly: SPR Biacore 8K, mAb on protein A. As to the method: as §1, §2

For assay [5], the target named is T1, Human nectin-4 ECD-6His (TNT-175). As to the kind of experiment: SPR Biacore 8K. As to the method:
(§3) Further testing of select nectin-4 antibodies to human, mouse and cyno nectin-4. Additional assessment of the nectin-4 antibodies was performed to measure binding to human, mouse, and cynomolgus nectin-4. Biacore 8K (Cytiva, Marlborough, MA) was used to further characterize binding of four of the nectin-4 monoclonal antibodies.
(§4) All experiments were performed at 25° C. temperature and in HBS-EP+ run buffer (10 mM HEPES, pH 7.4, 150 mM NaCl, 3 mM EDTA, 0.05% Tween-20). The antibodies were captured or immobilized on a Biacore chip either through amine-coupling method on a CM5 or captured by ProteinA chip or captured by anti-mouse polyclonal antibody or anti-human polyclonal antibody. […] The data were processed and analyzed in Biacore Insight Evaluation Software using double-reference subtraction of the data and then fitted to a simple Langmuir binding model using global kinetic rate constants for association (Kₐ), dissociation (Kd), and Rₘₐₓ values per sample. Fit quality was determined by inspection of the residuals and of statistical T values and the equilibrium dissociation (or affinity) constant was deduced by the ratio of the kinetic rate constants. KD=Kd/Kₐ.

The target in assay [6] is T3, Human nectin-4-IgV-6His (TNT-252). As to the kind of experiment: SPR Biacore 8K. As for the experimental part: as §3, §4
Assay [7] deals with T4, Cyno nectin-4 ECD-6His (TNT-255). Put plainly: SPR Biacore 8K. As to the method:
as §3, §4

The target of assay [8] is T2, Mouse nectin-4 ECD-6His (TNT-250). As to the kind of experiment: SPR Biacore 8K. As to the method: as §3, §4
For assay [9], the target named is T1, Human nectin-4 ECD-6His (TNT-175). As to the kind of experiment: SPR Biacore 8K, mAb on protein A. This is another data set of the same source.

B1: TNT-212 (antibody, human IgG1, kappa)
heavy: not shown
light: DIQMTQSPSSVSASVGDRVTITCRASQGISGWLAWYQQKPGKAPKFLIYAASTLQSGVPSRFSGSGSGTDFTLTISSLQPEDFATYYCQQANSFPPTFGGGTKVEIKRTVAAPSVFIFPPSDEQLKSGTASVVCLLNNFYPREAKVQWKVDNALQSGNSQESVTEQDSKDSTYSLSSTLTLSKADYEKHKVYACEVTHQGLSSPVTKSFNRGEC
notes: also called TNT-154
What is called Kd is the equilibrium constant for the complex coming apart. A higher Kd goes with weaker binding. As to B1, the Kd is 8.69 nM in assay [1]; 9.88 nM in assay [3]; 40.5 nM in assay [4]; 8 nM in assay [5]; 10 nM in assay [6]; 40 nM in assay [7]. Moreover, the binding result in assay [2] is “binds”.

B2: TNT-203 (antibody, human IgG1, kappa)
heavy: not shown
light: EIVLTQSPATLSLSPGERATLSCRASQSVSSYLAWYQQKPGQAPRLLIYDASNRATGIPARFSGSGSGTDFTLTISSLQAEDFATYYCQQSYSTRFGGGTKVEIKRTVAAPSVFIFPPSDEQLKSGTASVVCLLNNFYPREAKVQWKVDNALQSGNSQESVTEQDSKDSTYSLSSTLTLSKADYEKHKVYACEVTHQGLSSPVTKSFNRGEC
B2: the Kd in assay [1] stood at 101 nM; in [2] it was 196 nM; in assay [3] it was 138 nM; in assay [4], 172 nM; in [5] it was 70 nM; in assay [8], 115 nM. In addition, the figures for the Kd in assay [6] and in assay [7] were 138 nM and 172 nM, respectively.

B3: TNT-207 (antibody, human IgG1, kappa)
heavy: not shown
light: DIQMTQSPSSLSASVGDRVTITCRASQGISNYLAWFQQKPGKAPKSLISAASSLQSGVPSRFSGSGSGTDFTLTISSLQPEDFATYYCLQHDSFPITFGGGTKLEIKRTVAAPSVFIFPPSDEQLKSGTASVVCLLNNFYPREAKVQWKVDNALQSGNSQESVTEQDSKDSTYSLSSTLTLSKADYEKHKVYACEVTHQGLSSPVTKSFNRGEC
As for B3, the Kd in [9] was 1 nM; in [1], 1.37 nM; in [2] it was 5.07 nM; in assay [3], 1.77 nM; in [4], 4.19 nM; in assay [5], 1.5 nM. Also, the Kd in assay [8] was 6 nM; in [6] it was 1.8 nM; in [7], 4.2 nM.

Source of the values: patent US20240382610A1 (TALLAC THERAPEUTICS, published 2024).
